T1: Wildtype human PAR2 expressed on cells (human, UniProt P55085 37-397)
T1 construct: also called huPAR2; WT FL-huPAR2
T1 sequence: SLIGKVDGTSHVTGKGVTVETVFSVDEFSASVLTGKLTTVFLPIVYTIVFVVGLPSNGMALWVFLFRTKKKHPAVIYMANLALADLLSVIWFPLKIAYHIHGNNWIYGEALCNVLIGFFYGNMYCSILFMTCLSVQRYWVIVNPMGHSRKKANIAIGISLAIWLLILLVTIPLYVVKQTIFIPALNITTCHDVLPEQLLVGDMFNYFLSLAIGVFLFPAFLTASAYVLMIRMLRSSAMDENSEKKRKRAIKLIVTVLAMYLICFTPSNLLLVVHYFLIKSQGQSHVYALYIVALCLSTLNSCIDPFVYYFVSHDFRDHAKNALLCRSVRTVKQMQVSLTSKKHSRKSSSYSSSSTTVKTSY

T2: Human PAR2 StaR incorporated into nanodiscs (construct not stated) (human, UniProt P55085 37-377, limits assumed)
T2 construct: also called nanodisc-embedded StaR
T2 sequence: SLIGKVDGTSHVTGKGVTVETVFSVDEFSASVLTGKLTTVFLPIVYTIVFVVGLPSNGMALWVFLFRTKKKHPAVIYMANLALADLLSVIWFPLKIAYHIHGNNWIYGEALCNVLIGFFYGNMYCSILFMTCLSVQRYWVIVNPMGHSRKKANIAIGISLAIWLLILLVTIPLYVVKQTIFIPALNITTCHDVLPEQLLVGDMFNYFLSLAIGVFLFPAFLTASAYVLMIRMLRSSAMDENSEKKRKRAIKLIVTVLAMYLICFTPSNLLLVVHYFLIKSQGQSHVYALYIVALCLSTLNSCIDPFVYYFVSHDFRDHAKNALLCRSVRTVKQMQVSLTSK

B1: Y022870 (antibody, human IgG1, lambda, V domains shown)
VH: EVQLLESGGGLVQPGGSLRLSCAASGFSFSRYAITWVRQAPGKGLEWVSTISALGLETYYAESVRGRFTISRDNSKNTLYLQMNSLRAEDTAVYYCARGFHYTHSGKRYYYPFDIWGQGTLVTVSS
VL: QSALTQPASVSGSPGQSITISCTGTSSDVGSYNLVSWYQQHPGKAPKLMIYEGSKRPSGVSNRFSGSKSGNTASLTISGLQAEDEADYYCSQYATFIAFAVFGGGTKLTVLG
notes: also called Y22870
B2: Y022883 (antibody, human IgG1, lambda, V domains shown)
VH: EVQLLESGGGLVQPGGSLRLSCAASGFSFTRYAISWVRQAPGKGLEWVSVISGHGSEANYAESVKGRFTISRDNSKNTLYLQMNSLRAEDTAVYYCARGFHYTHSGKRYYYPFDIWGQGTLVTVSS
VL: QSALTQPASVSGSPGQSITISCTGTSSDVGSYNLVSWYQQHPGKAPKLMIYEGSKRPSGVSNRFSGSKSGNTASLTISGLQAEDEADYYCSQYATFIAFAVFGGGTKLTVLG
notes: also called Y22883; Y02283
B3: Y022877 (antibody, human IgG1, lambda, V domains shown)
VH: EVQLLESGGGLVQPGGSLRLSCAASGFTFSRYAMTWVRQAPGKGLEWVSTISGLGQEAYYAGSVKGRFTISRDNSKNTLYLQMNSLRAEDTAVYYCARGFHYTHSGKRYYYPFDIWGQGTLVTVSS
VL: QSALTQPASVSGSPGQSITISCTGTSSDVGSYNLVSWYQQHPGKAPKLMIYEGSKRPSGVSNRFSGSKSGNTASLTISGLQAEDEADYYCSQYATFIAFAVFGGGTKLTVLG
notes: also called Y22877

Assays:
[1] = biological target: T1, Wildtype human PAR2 expressed on cells; assay: KinExA, whole cell equilibrium, HEK-293F cells expressing WT full-length human PAR2 titrated against two fixed IgG concentrations, apparent KD; sheet also prints Expression Level: 7.951e+006 receptors/cell, Error: 2.06 %
Experimental: (§1) For the determination of apparent KD using “native” PAR2 (i.e. PAR2 expressed at the cell surface) KinExA methodology was applied to evaluate a subset of lead clones, namely Y022870 and Y02283. […] The cells were titrated in incubation buffer (D-PBS from Gibco, 0.5% (w/v) BSA, 0.02% (v/v) Sodium azide). The experiment consisted of two titrations with a low and a high fixed IgG concentration. In both titration experiments (stoichiometry- and affinity-controlled conditions), the maximum amount of cells had to contain a high enough effective ligand concentration to completely saturate the IgG. The mixtures of IgG and cells were incubated at room temperature overnight under very gentle agitation to allow for equilibrium formation. Subsequently, the formed cell-antibody complex was removed by centrifugation. The free IgG amounts of the supernatants were determined with goat anti-human F(ab′)₂ fragment specific antibody (Jackson ImmunoResearch, #109-005-097) coated on PMMA (Polymethylmethacrylat) beads and fluorescence detection with anti-human F(ab′)₂ fragment specific Alexa Fluor 647 antibody (Jackson ImmunoResearch, #109-605-097). […] The recorded titration curves were analyzed with KinExA Pro software 4.1.11 using the n-curve analyse tool by applying the “Equilibrium, whole cell” model. […] Values are in line with SPR determined using PAR2 nanodiscs (210 and 140 pM, respectively).

[2] = biological target: T1, Wildtype human PAR2 expressed on cells; assay: KinExA, apparent KD; IgG titrated with BacMam infected HEK-293F cells expressing wild-type full-length human PAR2
Experimental: as §1

[3] = biological target: T2, Human PAR2 StaR incorporated into …; assay: SPR Biacore; human PAR2 StaR incorporated into nanodiscs
[4] = biological target: T3, Cynomolgus PAR2 on BacMam-infected HEK293 cells (cynomolgus); assay: flow cytometry on HEK293F-cynoPAR2 (3.0E+06 cells/mL), S/BG
T3 construct: whole, on cells; also called cyno PAR-2; Cyno PAR2

[5] = biological target: T1, Wildtype human PAR2 expressed on cells; assay: KinExA, whole cell equilibrium, HEK-293F cells expressing WT full-length human PAR2 titrated against two fixed IgG concentrations, apparent KD; sheet also prints Expression Level: 2.518e+006 receptors/cell, Error: 2.56 %
Experimental: as §1

| Kd [1] [nM] | Kd [2] [nM] | Kd [3] [nM] | koff [3] [s⁻¹] | kon [3] [M⁻¹ s⁻¹] | EC50 (read off the curve) [4] [nM] | Kd [5] [nM] | Binder |
| --- | --- | --- | --- | --- | --- | --- | --- |
| 0.373 | ~0.37 | 2.7 | 0.00025 | 93000 | – | – | B1 |
| – | ~0.26 | – | – | – | ~2 | 0.259 | B2 |
| – | – | 2.8 | 0.00021 | 73000 | ~3 | – | B3 |
